In patent US20200362049A1:

Biological target: Recombinant, Histidine-tagged extracellular domain of human CD38 (human) (UniProt P28907)
Test: BLI (Forte Bio), 1:1 fit

Kd: 9 nM
Substance: IB4, reference monoclonal agonistic mouse anti-human CD38 antibody
